The data set has as its system TTR. Description: TTR editing in primary human hepatocytes transfected with Spy Cas9 mRNA and sgRNAs (Table 13). Type of data set: cell-based. The settings on record: primary human hepatocytes co-transfected with Spy Cas9 mRNA (SEQ ID NO:2) and sgRNAs, 12.5 nM. As to the method: Primary liver hepatocytes. Primary human liver hepatocytes (PHH) and primary cynomolgus liver hepatocytes (PCH) (Gibco) were cultured per the manufacturer's protocol (Invitrogen, protocol 11.28.2012). In brief, the cells were thawed and resuspended in hepatocyte thawing medium with supplements (Gibco, Cat. CM7000) followed by centrifugation at 100 g for 10 minutes for human and 80 g for 4 minutes for cyno. The supernatant was discarded and the pelleted cells resuspended in hepatocyte plating medium plus supplement pack (Invitrogen, Cat. A1217601 and CM3000). Cells were counted and plated on Bio-coat collagen I coated 96-well plates (ThermoFisher, Cat. 877272) at a density of 33,000 cells/well for human or 60,000 cells/well for cyno (or 65,000 cells/well when assaying effects on TTR protein, described further below). Plated cells were allowed to settle and adhere for 6 or 24 hours in a tissue culture incubator at 37° C. and 5% CO2 atmosphere. After incubation cells were checked for monolayer formation and media was replaced with hepatocyte culture medium with serum-free supplement pack (Invitrogen, Cat. A1217601 and CM4000).
Lipofectamine RNAiMax (ThermoFisher, Cat. 13778150) based transfections were conducted as per the manufacturer's protocol. Cells were sequentially transfected with a lipoplex containing Spy Cas9 mRNA (100 ng), Lipofectamine RNAiMax (0.4 […]) and tracer RNA ([…]), Lipofectamine RNAiMax (0.4 μL/well) and OptiMem.
Transfected cells were harvested post-transfection at 24, 48, or 72 hours. The genomic DNA was extracted from each well of a 96-well plate using 50 μL/well BuccalAmp DNA Extraction solution (Epicentre, Cat. QE09050) per manufacturer's protocol. All DNA samples were subjected to PCR and subsequent NGS analyses, as described herein.
To quantitatively determine the efficiency of editing at the target location in the genome, sequencing was utilized to identify the presence of insertions and deletions introduced by gene editing.
Primers were designed around the target site within the gene of interest (e.g. TTR), and the genomic area of interest was amplified.
Additional PCR was performed per the manufacturer's protocols (Illumina) to add chemistry for sequencing. The amplicons were sequenced on an Illumina MiSeq instrument. The reads were aligned to a reference genome (e.g., the human reference genome (hg38), the cynomologus reference genome (mf5), the rat reference genome (rn6), or the mouse reference genome (mm10)) after eliminating those having low quality scores. The resulting files containing the reads were mapped to the reference genome (BAM files), where reads that overlapped the target region of interest were selected and the number of wild type reads versus the number of reads which contain an insertion, substitution, or deletion was calculated.
The editing percentage (e.g., the “editing efficiency” or “percent editing” or “indel frequency”) is defined as the total number of sequence reads with insertions/deletions (“indels”) or substitutions over the total number of sequence reads, including wild type.
Guides in modified sgRNA format targeting human and/or cyno TTR were delivered to primary human hepatocytes and primary cyno hepatocytes as described in Example 1. Percent editing was determined for crRNAs comprising each guide sequence across each cell type and the guide sequences were then rank ordered based on highest % edit. The screening data for the guide sequences in Table 2 in both cell lines are listed below (Table 12 through 15).

Strand notation (5' to 3'): a small letter for the sugar, then the base; units joined by * are phosphorothioate-linked, units joined directly phosphodiester-linked; [ ] holds rarer units or linkages, { } end groups; capitals alone tell only the bases. m = 2'-O-methyl; r = 2'-OH (RNA)

B1: G000501: TTR sgRNA modified sequence, Human, SEQ ID No. 108; guide sequence of CR005300 (nucleic acid)
guide: mU*mC*mA*rCrArGrArArArCrArCrUrCrArCrCrGrUrArGrUrUrUrUrArGrAmGmCmUmAmGmAmAmAmUmAmGmCrArArGrUrUrArArArArUrArArGrGrCrUrArGrUrCrCrGrUrUrArUrCrAmAmCmUmUmGmAmAmAmAmAmGmUmGmGmCmAmCmCmGmAmGmUmCmGmGmUmGmCmU*mU*mU*mU
Consider B1, for which the “Avg % Deletion” value was 6.62%, the “Avg % Edit” value came to 40.32% and the “Avg % Insert” value was 33.82%.

B2: G000570: TTR sgRNA modified sequence, Human, SEQ ID No. 111; guide sequence of CR003347 (nucleic acid)
guide: mC*mA*mU*rUrGrArUrGrGrCrArGrGrArCrUrGrCrCrUrGrUrUrUrUrArGrAmGmCmUmAmGmAmAmAmUmAmGmCrArArGrUrUrArArArArUrArArGrGrCrUrArGrUrCrCrGrUrUrArUrCrAmAmCmUmUmGmAmAmAmAmAmGmUmGmGmCmAmCmCmGmAmGmUmCmGmGmUmGmCmU*mU*mU*mU
In the case of B2, the “Avg % Deletion” value stood at 0.35%, the “Avg % Edit” value stood at 68.42% and the “Avg % Insert” value is 68.08%.

B3: G000567: TTR sgRNA modified sequence, Human, SEQ ID No. 109; guide sequence of CR003352 (nucleic acid)
guide: mG*mA*mA*rArGrGrCrUrGrCrUrGrArUrGrArCrArCrCrGrUrUrUrUrArGrAmGmCmUmAmGmAmAmAmUmAmGmCrArArGrUrUrArArArArUrArArGrGrCrUrArGrUrCrCrGrUrUrArUrCrAmAmCmUmUmGmAmAmAmAmAmGmUmGmGmCmAmCmCmGmAmGmUmCmGmGmUmGmCmU*mU*mU*mU
B3: the “Avg % Deletion” value came to 10.02%, the “Avg % Edit” value is 27.28% and the “Avg % Insert” value was 17.35%.

B4: G000500: TTR sgRNA modified sequence, Human, SEQ ID No. 107; guide sequence of CR003337 (nucleic acid)
guide: mC*mC*mA*rGrUrCrCrArGrCrArArGrGrCrArGrArGrGrGrUrUrUrUrArGrAmGmCmUmAmGmAmAmAmUmAmGmCrArArGrUrUrArArArArUrArArGrGrCrUrArGrUrCrCrGrUrUrArUrCrAmAmCmUmUmGmAmAmAmAmAmGmUmGmGmCmAmCmCmGmAmGmUmCmGmGmUmGmCmU*mU*mU*mU
As for B4, the “Avg % Deletion” value amounted to 3.10%, the “Avg % Edit” value was 35.50% and the “Avg % Insert” value is recorded as 32.47%.

B5: G000572: TTR sgRNA modified sequence, Human, SEQ ID No. 113; guide sequence of CR003385 (nucleic acid)
guide: mC*mC*mC*rCrUrArCrUrCrCrUrArUrUrCrCrArCrCrArGrUrUrUrUrArGrAmGmCmUmAmGmAmAmAmUmAmGmCrArArGrUrUrArArArArUrArArGrGrCrUrArGrUrCrCrGrUrUrArUrCrAmAmCmUmUmGmAmAmAmAmAmGmUmGmGmCmAmCmCmGmAmGmUmCmGmGmUmGmCmU*mU*mU*mU
As for B5, the “Avg % Deletion” value worked out at 13.85%, the “Avg % Edit” value is given as 55.42% and the “Avg % Insert” value is 41.62%.

B6: G000568: TTR sgRNA modified sequence, Human, SEQ ID No. 110; guide sequence of CR003391 (nucleic acid)
guide: mG*mG*mC*rUrGrUrCrGrUrCrArCrCrArArUrCrCrCrArGrUrUrUrUrArGrAmGmCmUmAmGmAmAmAmUmAmGmCrArArGrUrUrArArArArUrArArGrGrCrUrArGrUrCrCrGrUrUrArUrCrAmAmCmUmUmGmAmAmAmAmAmGmUmGmGmCmAmCmCmGmAmGmUmCmGmGmUmGmCmU*mU*mU*mU
As for B6, the “Avg % Deletion” value turned out to be 0.80%, the “Avg % Edit” value worked out at 43.75% and the “Avg % Insert” value is recorded as 43.00%.

B7: G000571: TTR sgRNA modified sequence, Human, SEQ ID No. 112; guide sequence of CR005301 (nucleic acid)
guide: mG*mU*mC*rArCrArGrArArArCrArCrUrCrArCrCrGrUrGrUrUrUrUrArGrAmGmCmUmAmGmAmAmAmUmAmGmCrArArGrUrUrArArArArUrArArGrGrCrUrArGrUrCrCrGrUrUrArUrCrAmAmCmUmUmGmAmAmAmAmAmGmUmGmGmCmAmCmCmGmAmGmUmCmGmGmUmGmCmU*mU*mU*mU
As for B7, the “Avg % Deletion” value worked out at 6.13%, the “Avg % Edit” value is 20.47% and the “Avg % Insert” value is 14.47%.
